Target: PwNAC11-cYFP fusion protein (Picea wilsonii)

dual-luciferase assay in tobacco: activation of the ERD1 promoter reporter on simultaneous expression of PwNAC11 and ABF3, against the control group (PwNAC11 alone 2.67-fold over empty vector): 3.04 fold
B1: ABF3 in pSPYNE (BiFC fusion) (natural protein)
chain: MGSRLNFKSFVDGVSEQQPTVGTSLPLTRQNSVFSLTFDEFQNSWGGGIGKDFGSMNMDELLKNIWTAEESHSMMGNNTSYTNISNGNSGNTVINGGGNNIGGLAVGVGGESGGFFTGGSLQRQGSLTLPRTISQKRVDDVWKELMKEDDIGNGVVNGGTSGIPQRQQTLGEMTLEEFLVRAGVVREEPQPVESVTNFNGGFYGFGSNGGLGTASNGFVANQPQDLSGNGVAVRQDLLTAQTQPLQMQQPQMVQQPQMVQQPQQLIQTQERPFPKQTTIAFSNTVDVVNRSQPATQCQEVKPSILGIHNHPMNNNLLQAVDFKTGVTVAAVSPGSQMSPDLTPKSALDASLSPVPYMFGRVRKTGAVLEKVIERRQKRMIKNRESAARSRARKQAYTMELEAEIAQLKELNEELQKKQVEIMEKQKNQLLEPLRQPWGMGCKRQCLRRTLTGPW
